# Measured values taken from US7125847.
# Several values for one entry are separate records, joined by “and”; a condition that tells them apart may be missing. Equal entries are not always repeated. Where two headings read alike, the source gives them in different places. Where no end group is shown, it is not given here.
# Assays:
# [1] = target: stretch-activated channels (SACs) of activated adult rat astrocytes (rat); test: cell-based or functional assay
# [2] = target: stretch-activated channels (SACs) of activated adult rat astrocytes (rat)
# [3] = target: stretch-activated channels (SACs) of activated adult rat astrocytes (rat); remark: listed apart in the source
binder,measurement,setting,value
"GCLEFWWKCNPNDDKCCRPKLKCSKLFKLCNFSSG-NH2 (disulfide (positions not given here); not fully specified (bridges); also: 3 disulfides (ICK motif), pairing not given here) [GsMTx-4 purified from Grammostola spatulata venom]",average SAC current after GsMTx-4 washout,[1],2.28 pA
same,average SAC current during GsMTx-4 application,[1],0.17 pA
same,mean SAC current before GsMTx-4 application,[1],2.04 pA
same,ratio of blocked to unblocked current I/I0,[1],0.083
same,time constant of recovery of SAC current on washout,[1],4.7 s
same,Kd,[2],631 nM and 415 nM
same,koff,[2],0.21 s⁻¹
same,kon,[2],330000 M⁻¹ s⁻¹
same,kon,[3],340000 M⁻¹ s⁻¹
